Reference: patent US20050106100
“And” between values parts separate entries of the source, which are not always exact repeats. Identical values can stand only once.

Columns and labels:
Ac-LRY˜Cha-TA-Ahxh-Hynic = molecular target: T1, Ac-LRY˜Cha-TA-Ahxh-Hynic (not fully specified)
T1 chain: LRYXTA

[1] = molecular target: T2, Ac-NLys-PLG˜LL-Ahxh-Hynic (not fully specified)
T2 chain: XPLGLL

[2] = molecular target: T3, Ac-P-Cha-G˜Smc-HA-Ahxh-Hynic (not fully specified)
T3 chain: PXGXHA

[3] = molecular target: T4, Ac-P-Cit-G˜Hphe-OL-Ahxh-Ac[C14] (not fully specified)
T4 chain: PXGXXL

[4] = molecular target: T5, Ac-P-Cit-Hse˜Hphe-SA-Ahxh-Hynic (not fully specified)
T5 chain: PXXXSA

[5] = molecular target: T6, Ac-P-O(Me)2-G˜Hphe-L-Nle-Ahxh-Hynic (not fully specified)
T6 chain: PXGXLX

[6] = molecular target: T7, Ac-PL-NLys-LL-NHNH-Ac[C14]
T7 chain: PLXLL

[7] = molecular target: T8, Ac-PL-NLys˜Hphe-RL-Ahxh-Ac[C14] (not fully specified)
T8 chain: PLXXRL

[8] = molecular target: T9, Ac-PL-NLys˜S(OBn)-LL-Ahxh-Ac[C14] (not fully specified)
T9 chain: PLXSLL

[9] = molecular target: T10, Ac-PLG˜Ahp-YL-Ahxh-Ac[C14] (not fully specified)
T10 chain: PLGXYL

[10] = molecular target: T11, Ac-PLG˜Cit-LA-Ahxh-Ac[C14] (not fully specified)
T11 chain: PLGXLA

[11] = molecular target: T12, Ac-PLG˜Hphe-KL-Ahxh-Ac[C14] (not fully specified)
T12 chain: PLGXKL

[12] = molecular target: T13, Ac-PLG˜Hphe-R-Ahxh-Ac[C14] (not fully specified)
T13 chain: PLGXR

[13] = molecular target: T14, Ac-PLG˜Hphe-RLA-Ambh-Hynic
T14 chain: PLGXRLA

[14] = molecular target: T15, Ac-PLG˜L-Pya-L-Ahxh-Ac[C14] (not fully specified)
T15 chain: PLGLXL

Ac-PLG˜LYA-Ahxh-Hynic = molecular target: T16, Ac-PLG˜LYA-Ahxh-Hynic (not fully specified)
T16 chain: PLGLYA

Ac-POG˜Hphe-L-Hynic = molecular target: T17, Ac-POG˜Hphe-L-Hynic
T17 chain: PXGXL

[15] = molecular target: T18, Ac-POG˜Hphe-LQ-Ahxh-Hynic
T18 chain: PXGXLQ

[16] = molecular target: T19, Ac-POG˜Hphe-LTR-Ahxh-Hynic
T19 chain: PXGXLTR

Ac-POG˜LLA-Ahxh-Hynic = molecular target: T20, Ac-POG˜LLA-Ahxh-Hynic
T20 chain: PXGLLA

[17] = molecular target: T21, Ac-PRG˜Hphe-Dab-A-Ahxh-Hynic
T21 chain: PRGXXA

[18] = molecular target: T22, Ac-PRG˜Hphe-LA-Ahxh-Hynic
T22 chain: PRGXLA

Ac-PRQ˜ITA-Ahxh-Hynic = molecular target: T23, Ac-PRQ˜ITA-Ahxh-Hynic
T23 chain: PRQITA

Ac-PRR˜Cha-TA-Ambh-Hynic = molecular target: T24, Ac-PRR˜Cha-TA-Ambh-Hynic
T24 chain: PRRXTA

[19] = molecular target: T25, H-NLys-PLG˜LYT-Ahxh-Hynic (not fully specified)
T25 chain: XPLGLYT

[20] = molecular target: T26, H-γ-DGlu-PLG-LYT-Ahxh-Hynic (not fully specified)
T26 chain: EPLGLYT

[21] = molecular target: T27, Hynic-Ahx-PLG˜Hphe-OLEE-OH
T27 chain: XPLGXXLEE

Piv-PLG˜LYT-Ahxh-Hynic = molecular target: T28, Piv-PLG˜LYT-Ahxh-Hynic
T28 chain: PLGLYT

[22] = molecular target: T29, Ac-NGlu-PLG˜Hphe-YL-Ambh-Hynic (not fully specified)
T29 chain: XPLGXYL

Protein | Kcat/Km (Ac-LRY˜Cha-TA-Ahxh-Hynic) | Kcat/Km [1] | Kcat/Km [2] | Kcat/Km [3] | Kcat/Km [4] | Kcat/Km [5] | Kcat/Km [6] | Kcat/Km [7] | Kcat/Km [8] | Kcat/Km [9] | Kcat/Km [10] | Kcat/Km [11] | Kcat/Km [12] | Kcat/Km [13] | Kcat/Km [14] | Kcat/Km (Ac-PLG˜LYA-Ahxh-Hynic) | Kcat/Km (Ac-POG˜Hphe-L-Hynic) | Kcat/Km [15] | Kcat/Km [16] | Kcat/Km (Ac-POG˜LLA-Ahxh-Hynic) | other results
MMP-2 (protein) APSPIIKFPGDVAPKTDKELAVQYLNTFYGCPKESCNLFVLKDTLKKMQKFFGLPQTGDLDQNTIETMRKPRCGNPDVANYNFFPRKPKWDKNQITYRIIGYTPDLDPETVDDAFARAFQVWSDVTPLRFSRIHDGEADIMINFGRWEHGDGYPFDGKDGLLAHAFAPGTGVGGDSHFDDDELWTLGEGQVVRVKYGNADGEYCKFPFLFNGKEYNSCTDTGRSDGFLWCSTTYNFEKDGKYGFCPHEALFTMGGNAEGQPCKFPFRFQGTSYDSCTTEGRTDGYRWCGTTEDYDRDKKYGFCPETAMSTVGGNSEGAPCVFPFTFLGNKYESCTSAGRSDGKMWCATTANYDDDRKWGFCPDQGYSLFLVAAHEFGHAMGLEHSQDPGALMAPIYTYTKNFRLSQDDIKGIQELYGASPDIDLGTGPTPTLGPVTPEICKQDIVFDGIAQIRGEIFFFKDRFIWRTVTPRDKPMGPLLVATFWPELPEKIDAVYEAPQEEKAVFFAGNEYWIYSASTLERGYPKPLTSLGLPPDVQRVDAAFNWSKNKKTYIFAGDKFWRYNEVKKKMDPGFPKLIADAWNAIPDNLDAVVDLQGGGHSYFFKGAYYLKLENQSLKSVKFGSIKSDWLGC | 0 M⁻¹ s⁻¹ | 76300 M⁻¹ s⁻¹ | 146000 M⁻¹ s⁻¹ | 42500 M⁻¹ s⁻¹ | 91400 M⁻¹ s⁻¹ | 567000 M⁻¹ s⁻¹ | 134000 M⁻¹ s⁻¹ | 102000 M⁻¹ s⁻¹ | 165000 M⁻¹ s⁻¹ | 38700 M⁻¹ s⁻¹ | 16300 M⁻¹ s⁻¹ | 103000 M⁻¹ s⁻¹ | > 500000 M⁻¹ s⁻¹ | 197 M⁻¹ s⁻¹ | 93000 M⁻¹ s⁻¹ | 404000 M⁻¹ s⁻¹ | 63700 M⁻¹ s⁻¹ | > 250000 M⁻¹ s⁻¹ | > 500000 M⁻¹ s⁻¹ | > 500000 M⁻¹ s⁻¹ | Kcat/Km [17]: 591000 M⁻¹ s⁻¹; Kcat/Km [18]: > 500000 M⁻¹ s⁻¹; Kcat/Km (Ac-PRQ˜ITA-Ahxh-Hynic): 2400 M⁻¹ s⁻¹; Kcat/Km (Ac-PRR˜Cha-TA-Ambh-Hynic): 0 M⁻¹ s⁻¹; Kcat/Km [19]: 85100 M⁻¹ s⁻¹; Kcat/Km [20]: 153000 M⁻¹ s⁻¹; Kcat/Km [21]: 83900 M⁻¹ s⁻¹ and 42500 M⁻¹ s⁻¹; Kcat/Km (Piv-PLG˜LYT-Ahxh-Hynic): 569000 M⁻¹ s⁻¹
human MMP-9 (protein) MRTPRCGVPDLGRFQTFEGDLKWHHHNITYWIQNYSEDLPRAVIDDAFARAFALWSAVTPLTFTRVYSRDADIVIQFGVAEHGDGYPFDGKDGLLAHAFPPGPGIQGDAHFDDDELWSLGKGVVVPTRFGNADGAACHFPFIFEGRSYSACTTDGRSDGLPWCSTTANYDTDDRFGFCPSERLYTQDGNADGKPCQFPFIFQGQSYSACTTDGRSDGYRWCATTANYDRDKLFGFCPTRADSTVMGGNSAGELCVFPFTFLGKEYSTCTSEGRGDGRLWCATTSNFDSDKKWGFCPDQGYSLFLVAAHEFGHALGLDHSSVPEALMYPMYRFTEGPPLHKDDVNGIRHLYGPRPEPEPRPPTTTTPQPTAPPTVCPTGPPTVHPSERPTAGPTGPPSAGPTGPPTAGPSTATTVPLSPVDDACNVNIFDAIAEIGNQLYLFKDGKYWRFSEGRGSRPQGPFLIADKWPALPRKLDSVFEERLSKKLFFFSGRQVWVYTGASVLGPRRLDKLGLGADVAQVTGALRSGRGKMLLFSGRRLWRFDVKAQMVDPRSASEVDRMFPGVPLDTHDVFQYREKAYFCQDRFYWRVSSRSELNQVDQVGYVTYDILQCPED | 811 M⁻¹ s⁻¹ | 83200 M⁻¹ s⁻¹ | > 250000 M⁻¹ s⁻¹ | 28600 M⁻¹ s⁻¹ | 38300 M⁻¹ s⁻¹ | 27000 M⁻¹ s⁻¹ | 138000 M⁻¹ s⁻¹ | 114000 M⁻¹ s⁻¹ | 271000 M⁻¹ s⁻¹ | 60400 M⁻¹ s⁻¹ | 34000 M⁻¹ s⁻¹ | 120000 M⁻¹ s⁻¹ | > 500000 M⁻¹ s⁻¹ | 4550 M⁻¹ s⁻¹ | 162000 M⁻¹ s⁻¹ | 512000 M⁻¹ s⁻¹ | 4450 M⁻¹ s⁻¹ | 84800 M⁻¹ s⁻¹ | 105000 M⁻¹ s⁻¹ | 187000 M⁻¹ s⁻¹ | Kcat/Km [22]: > 100000 M⁻¹ s⁻¹; Kcat/Km [17]: 474000 M⁻¹ s⁻¹; Kcat/Km [18]: > 500000 M⁻¹ s⁻¹; Kcat/Km (Ac-PRQ˜ITA-Ahxh-Hynic): 3520 M⁻¹ s⁻¹; Kcat/Km (Ac-PRR˜Cha-TA-Ambh-Hynic): 1580 M⁻¹ s⁻¹; Kcat/Km [19]: 149000 M⁻¹ s⁻¹; Kcat/Km [20]: 59400 M⁻¹ s⁻¹; Kcat/Km [21]: 2980 M⁻¹ s⁻¹ and 1670 M⁻¹ s⁻¹; Kcat/Km (Piv-PLG˜LYT-Ahxh-Hynic): 281000 M⁻¹ s⁻¹
